According to patent US20170192014A1 (PDL BIOPHARMA, published 2017):
Ends that are not written are not given here. * marks the point of attachment. Biotin = O=C1N[C@H]2[C@H](CS[C@H]2CCCCC(=O)*)N1

Experiments:
[1] = biological target: T1, full length recombinant cytokeratin 18 protein (rCK18) (human, UniProt P05783 1-430); test: Western blot
T1 construct: The exact recombinant construct, including any tags, is not described; also called recombinant full length CK18 protein; full-length (untreated) CK18
T1 sequence: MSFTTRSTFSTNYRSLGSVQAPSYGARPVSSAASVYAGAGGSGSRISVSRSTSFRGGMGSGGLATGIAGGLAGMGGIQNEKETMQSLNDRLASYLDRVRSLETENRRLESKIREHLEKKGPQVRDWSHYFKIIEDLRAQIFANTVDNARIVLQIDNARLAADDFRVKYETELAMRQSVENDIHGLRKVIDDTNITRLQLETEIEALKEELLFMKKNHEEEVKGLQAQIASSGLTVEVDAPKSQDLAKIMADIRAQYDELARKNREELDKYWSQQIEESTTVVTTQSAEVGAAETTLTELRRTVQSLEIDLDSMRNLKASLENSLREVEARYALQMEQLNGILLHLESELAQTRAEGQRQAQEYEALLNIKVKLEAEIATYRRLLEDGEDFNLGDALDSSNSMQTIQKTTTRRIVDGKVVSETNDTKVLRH
Description: (§1) FIG. 4 is a photographic reproduction of a Western Blot Analysis using the mAb 3C2 (Lane 1, marker proteins; Lane 2, blank; Lane 3, 1 μg recombinant full length CK18 protein (rCK18); Lane 4, 12 μL of SK-BR3 apoptotic cell supernatant; Lane 5, 12 μL of SK-BR3 cell supernatant). Proteins were run in a 14% Tris/Glycine gel. The concentrations for the test material were 1 μg of rCK18 and 12 μL of SK-BR-3 apoptotic supernatant and SK-BR-3 Cell Lysate. The proteins were run at 150 V constant until the dye front reached the end of the gel. The proteins were then transferred to nitrocellulose. The nitrocellulose was blocked and probed with the 3C2 mAb at 1 μg/mL for 60 minutes. The membrane was washed three times and probed with a goat anti-mouse IgG ALK for 30 minutes. The membrane was washed three times and developed with using a WesternBreeze® kit from Invitrogen™ (Cat # WB7104).

[2] = biological target: T2, full length CK18 from a cell extract of SK-BR-3 cells (human, UniProt P05783 1-430); test: Western blot
T2 construct: Endogenous CK18 of the human breast cancer cell line SK-BR-3, seen on a Western blot; also called SK-BR3 cell supernatant (lane 5)
T2 sequence: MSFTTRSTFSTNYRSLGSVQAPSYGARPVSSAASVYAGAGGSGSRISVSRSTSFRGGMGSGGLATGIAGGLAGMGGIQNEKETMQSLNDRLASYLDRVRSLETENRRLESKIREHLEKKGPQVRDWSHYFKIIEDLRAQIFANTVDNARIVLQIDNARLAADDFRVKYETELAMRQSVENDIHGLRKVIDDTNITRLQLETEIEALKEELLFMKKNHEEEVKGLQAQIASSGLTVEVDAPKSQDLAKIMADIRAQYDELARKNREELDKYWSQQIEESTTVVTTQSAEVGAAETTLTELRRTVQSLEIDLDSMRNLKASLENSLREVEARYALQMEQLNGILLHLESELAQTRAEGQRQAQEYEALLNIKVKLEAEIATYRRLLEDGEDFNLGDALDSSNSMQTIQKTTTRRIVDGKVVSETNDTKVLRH
Description: as §1

[3] = biological target: T3, human CK18 protein fragment M1-D238 from apoptotic SK-BR3 cells (human, UniProt P05783 1-238); test: Western blot
T3 construct: Endogenous fragment in the supernatant or lysate of SK-BR-3 cells induced to become apoptotic; also called fragment B; caspase-cleaved CK18 fragment
T3 sequence: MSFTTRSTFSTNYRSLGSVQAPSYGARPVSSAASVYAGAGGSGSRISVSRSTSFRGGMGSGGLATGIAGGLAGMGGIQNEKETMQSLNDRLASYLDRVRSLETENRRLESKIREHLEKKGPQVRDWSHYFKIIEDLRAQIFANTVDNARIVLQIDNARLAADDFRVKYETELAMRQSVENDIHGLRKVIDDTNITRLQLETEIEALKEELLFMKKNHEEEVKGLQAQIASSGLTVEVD
Description: as §1

[4] = biological target: T4, biotin conjugated CK18 peptide ^229ASSGLTVEVD (A229-D238) (human); test: immunoassay on biotin peptides on NeutrAvidin-coated 96-well plate
T4 construct: also called peptide P1
T4 peptide: Biotin-ASSGLTVEVD
Description: (§2) The specificity of monoclonal antibody 3C2 was also assessed in an immunoassay against the peptides ²²⁹[…] (SEQ ID NO:1), ²²⁹[…] (SEQ ID NO:12) and ³⁸⁸[…] (SEQ ID NO:13) (each conjugated with biotin at their amino-terminus), which were added to a 96-well microplate coated with NeutrAvidin® by Invitrogen™. Human cytokeratin 18 protein fragment A239-D397 was also produced by the action of caspase 3 during cellular apoptosis and ends in the sequence ³⁹⁴DALD (SEQ ID NO:9). These peptides were incubated with mAb 3C2, M30 antibody (Enzo Life Sciences®, ALX-804-590) or other unrelated mAbs.

[5] = biological target: T5, biotin conjugated CK18 peptide ^229ASSGLTVEV (A229-V237) (human); test: as above
T5 peptide: Biotin-ASSGLTVEV
Description: as §2

[6] = biological target: T6, biotin conjugated CK18 peptide ^388EDFNLGDALD (human); test: as above
T6 peptide: Biotin-EDFNLGDALD
Description: as §2

[7] = biological target: T7, biotin conjugated CK18 peptide ^239APKSQDLAKI (A239-I248) (human, also: biotin conjugated); test: ECL assay, hybridoma supernatant on biotin peptide on streptavidin beads
T7 peptide: APKSQDLAKI
From the text: (§3) Caspases 3 and 6 generated three CK18 protein fragments having the sequences M1-D238 (SEQ ID NO:4), A239-D397 and 5398-H430. A monoclonal antibody specific for the carboxy terminus of human caspase-cleaved cytokeratin CK18 protein fragment having amino acids M1-D238 (SEQ ID NO:4) was generated by immunizing mice with a short peptide sequence of ²²⁹[…] (SEQ ID NO:1) (designated as peptide P1 for the Examples). Mouse sera were screened for a positive response to peptide P1. Splenocytes from mice with a positive response were fused with myeloma cells and cell culture fluid from the resulting hybridomas screened against peptide P1. Supernatant from hybridoma cells producing antibody with a positive response to peptide P1 were further screened by an electrochemiluminescence (ECL) assay against biotin conjugated peptides ²³⁹[…] (SEQ ID NO:10), ²⁴⁰[…] (SEQ ID NO:11), ²²⁹[…] (SEQ ID NO:1) and ²²⁹[…] (SEQ ID NO:12), which were each bound to streptavidin coated paramagnetic beads. Peptides ²²⁹[…] (SEQ ID NO:1) and ²²⁹[…] (SEQ ID NO:12) represent the amino acid sequences A229-D238 and A229-V237 of cytokeratin 18 protein while peptides ²³⁹[…] (SEQ ID NO:10) and ²⁴⁰[…] (SEQ ID NO:11) represent the amino acid sequences A239-1248 and K240-1248 of cytokeratin 18.

[8] = biological target: T8, biotin conjugated CK18 peptide ^240PKSQDLAKI (human, also: biotin conjugated); test: as above
T8 peptide: PKSQDLAKI
From the text: as §3

[9] = biological target: T9, recombinant human CK18 protein fragment B (rCK18fB) (human, UniProt P05783 1-238); test: sandwich ECL assay, capture biotin-3C2 on streptavidin beads, detector TAG-C-04, in normal human serum
T9 construct: also called recombinant CK-18 fragment B protein
T9 sequence: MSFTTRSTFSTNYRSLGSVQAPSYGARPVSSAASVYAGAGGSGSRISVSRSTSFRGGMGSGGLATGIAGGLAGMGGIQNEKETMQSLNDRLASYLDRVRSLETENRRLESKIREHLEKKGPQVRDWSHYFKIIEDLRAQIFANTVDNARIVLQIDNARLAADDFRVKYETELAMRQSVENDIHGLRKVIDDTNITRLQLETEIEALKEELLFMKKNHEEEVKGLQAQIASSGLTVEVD
Description: A recombinant human CK18 protein fragment B (rCK18fB) was prepared using standard procedures. An immunoassay consisted of incubating 50 μL rCK18fB (0, 206, 617, 1852, 5557, 16667, 50,000 and 100,000 U/L) spiked into normal human serum with 50 μL of reaction mix consisting of biotinylated mAb 3C2/streptavidin coated paramagnetic beads and anti-CK18 TAG labeled antibody C-04 for 60 minutes at room temperature with shaking. The bead complex was washed twice, suspended in buffer and read on an ECL analyzer. The results shown in FIG. 6, a representative standard curve, indicate rCK18fB is detectable over a range of 0-100,000 U/L (1 U/L=1000 pg=0.037 pM).

B1: monoclonal antibody 3C2 (antibody, V domains shown)
VH: DVQLVESGGGLVQPGGSRKLSCAASGFTFSSFGMHWVRQAPEKGLEWVAYINGGSTIIYYADTVKGRFTVSRDNPKNTLFLQMTSLRSDDTAMYFCVRRTPTAAGGAMDYWGQGTSVTVSS
VL: NIMVTQSPSSLAVSAGEKVTMTCKSSQSLFYSSNQKNYLAWFQQKPGQSPKLLIYWASTRESGVADRFTGSGYGTDFTLTISSVQAEDLAVYYCQQYLSSWTFGGGTKVEIK
notes: Mouse hybridoma monoclonal antibody, detected with goat anti-mouse IgG; also called mAb 3C2; anti-VEVD mAb
[1]
  binding result: no binding (tested: 3C2 mAb at 1 µg/mL; 1 µg of rCK18)
[2]
  binding result: no binding
[3]
  binding result: binds
[4]
  binding result: binds
[5]
  binding result: no binding
[6]
  binding result: no binding
[7]
  binding result: no binding
[8]
  binding result: no binding
[9]
  binding result: binds
